T1: mCD122(27-241)-hFc-D/mCD132(23-263)-hFc-K heterodimeric Fc fusion (mouse, UniProt P16297 27-241; P34902 23-263)
T1 sequence (looked up) 1: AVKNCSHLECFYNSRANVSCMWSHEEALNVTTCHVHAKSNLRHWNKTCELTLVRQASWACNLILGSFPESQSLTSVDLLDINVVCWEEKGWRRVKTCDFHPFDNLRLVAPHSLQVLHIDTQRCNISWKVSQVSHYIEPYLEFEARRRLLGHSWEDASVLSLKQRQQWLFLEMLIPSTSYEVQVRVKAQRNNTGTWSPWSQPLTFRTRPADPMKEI
T1 sequence (looked up) 2: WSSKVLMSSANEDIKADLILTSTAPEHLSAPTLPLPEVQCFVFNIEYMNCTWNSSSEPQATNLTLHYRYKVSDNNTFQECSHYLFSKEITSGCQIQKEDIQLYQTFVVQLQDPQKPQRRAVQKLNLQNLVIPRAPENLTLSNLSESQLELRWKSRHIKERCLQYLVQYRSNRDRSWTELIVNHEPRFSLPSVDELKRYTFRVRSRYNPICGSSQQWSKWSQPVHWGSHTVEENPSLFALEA

T2: biot-mCD25(22-186)-BioP-TVMV-His, His cleaved (mouse, UniProt P01590 22-186, biotin)
T2 sequence (looked up): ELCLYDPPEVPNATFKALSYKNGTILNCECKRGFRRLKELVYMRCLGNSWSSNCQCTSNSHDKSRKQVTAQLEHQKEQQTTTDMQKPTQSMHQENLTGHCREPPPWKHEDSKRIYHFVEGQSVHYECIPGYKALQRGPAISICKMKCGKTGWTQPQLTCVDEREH

T3: human CD25, captured for SPR (human, UniProt P01589 22-240)
T3 sequence (looked up): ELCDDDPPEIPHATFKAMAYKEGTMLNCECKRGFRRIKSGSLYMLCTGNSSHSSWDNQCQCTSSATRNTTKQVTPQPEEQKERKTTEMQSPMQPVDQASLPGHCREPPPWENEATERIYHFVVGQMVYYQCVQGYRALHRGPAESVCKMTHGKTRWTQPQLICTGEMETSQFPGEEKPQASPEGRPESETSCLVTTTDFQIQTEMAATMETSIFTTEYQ


Tests used:
[1] = target: T1, mCD122(27-241)-hFc-D/mCD132(23-263)-hFc- …; assay: SPR
SEC-MALS = target: the molecule itself; assay: SEC-MALS
[2] = target: T2, biot-mCD25(22-186)-BioP-TVMV-His, His …; assay: SPR
[3] = target: T3, human CD25, captured for SPR; assay: SPR

fold weaker apparent Kd than mIL-2 to mIL-2Rβ/γc [1]	fold weaker apparent Kd than mIL-2 to mCD25 [2]	fold weaker Kd than mIL-2 to mCD25 [3]	fold weaker binding than mIL-2 to mIL-2Rβ/γc [1]	fold stronger affinity than mIL-2/mCD25 to mCD25 [2]	Binder	stoichiometry N (SEC-MALS)
~680 fold	~1000 fold	–	–	–	mIL-2/mCD25 fusion protein with the 12 amino acid (G3S)3 linker (other, mouse, glycosylated (N- and O-linked carbohydrate)) APTSSSTSSSTAEAQQQQQQQQQQQQHLEQLLMDLQELLSRMENYRNLKLPRMLTFKFYLPKQATELKDLQCLEDELGPLRHVLDLTQSKSFQLEDAENFISNIRVTVVKLKGSDNTFECQFDDESATVVDFLRRWIAFCQSIISTSPQGGGSGGGSGGGSELCLYDPPEVPNATFKALSYKNGTILNCECKRGFRRLKELVYMRCLGNSWSSNCQCTSNSHDKSRKQVTAQLEHQKEQQTTTDMQKPTQSMHQENLTGHCREPPPWKHEDSKRIYHFVEGQSVHYECIPGYKALQRGPAISICKMKCGKTGWTQPQLTCVDEREHHRFLASEESQGSRNSSPESETSCPITTTDFPQPTETTAMTETFVLTMEYKGG	2
–	–	~234 fold	–	–	mouse IL-2 (ligand, UniProt P04351 21-169, looked up) APTSSSTSSSTAEAQQQQQQQQQQQQHLEQLLMDLQELLSRMENYRNLKLPRMLTFKFYLPKQATELKDLQCLEDELGPLRHVLDLTQSKSFQLEDAENFISNIRVTVVKLKGSDNTFECQFDDESATVVDFLRRWIAFCQSIISTSPQ	–
–	–	–	45 fold	10 fold	mIL-2/hCD25 mouse/human chimeric fusion protein with the 12 amino acid (G3S)3 linker (other, mouse | human, glycosylated) APTSSSTSSSTAEAQQQQQQQQQQQQHLEQLLMDLQELLSRMENYRNLKLPRMLTFKFYLPKQATELKDLQCLEDELGPLRHVLDLTQSKSFQLEDAENFISNIRVTVVKLKGSDNTFECQFDDESATVVDFLRRWIAFCQSIISTSPQGGGSGGGSGGGSELCDDDPPEIPHATFKAMAYKEGTMLNCECKRGFRRIKSGSLYMLCTGNSSHSSWDNQCQCTSSATRNTTKQVTPQPEEQKERKTTEMQSPMQPVDQASLPGHCREPPPWENEATERIYHFVVGQMVYYQCVQGYRALHRGPAESVCKMTHGKTRWTQPQLICTGEMETSQFPGEEKPQASPEGRPESETSCLVTTTDFQIQTEMAATMETSIFTTEYQGG	2
